Data reported in publication PMC10066039, “Bile salt hydrolases shape the bile acid landscape and restrict Clostridioides difficile growth in the murine gut” (Nature Microbiology, 2023).

Columns and labels:
Experiment in all cases: crystal structure; crystals grown at 20 °C by sitting drop vapour diffusion (LgasBSHa with taurine and CDCA: hanging drop); data at 100 K; molecular replacement with PDB 2HEZ; homo-tetramer in the crystal structure
[1] = target: LgasBSHb (Lactobacillus gasseri)
[2] = target: LjohBSHc (johnsonii (cluster johnsonii_1, Lactobacillaceae))
LreuBSH = target: LreuBSH
LingBSH = target: LingBSH
LaciBSHa = target: LaciBSHa
[3] = target: the molecule itself

LgasBSHb (from UniProt A0A805Z5R7 1-316) (enzyme)
stoichiometry N [1]: 4

LjohBSHc (from UniProt A0A805Z5R7 1-316) (enzyme)
stoichiometry N [2]: 4

LreuBSH (from UniProt A0A805Z5R7 1-316) (enzyme)
stoichiometry N (LreuBSH): 4

LingBSH (from UniProt A0A805Z5R7 1-316) (enzyme)
stoichiometry N (LingBSH): 4

LaciBSHa (from UniProt A0A805Z5R7 1-316) (enzyme)
stoichiometry N (LaciBSHa): 4

B1: LgasBSHa (enzyme, Lactobacillus gasseri, UniProt A0A805Z5R7 1-316, looked up)
chain: MCTGLRFTDDQGNLYFGRNLDVGQDYGEGVIITPRNYPLPYKFLDNTTTKKAVIGMGIVVDGYPSYFDCFNEDGLGIAGLNFPHFAKFSDGPIDGKINLASYEIMLWVTQNFTKVSDVKEALKNVNLVNEAINSSFAVAPLHWIISDKDEAIIVEVSKQYGMKVFDDKLGVLTNSPDFNWHLTNLGNYTGLDPHDATAQSWNGQKVAPWGVGTGSLGLPGDSIPADRFVKAAYLNVNYPTVKGEKANVAKFFNILKSVAMIKGSVVNKLGSDEYTVYTACYSAATKTYYCNFENDFELKTYKLDDETMNADKLITY
notes: bile salt hydrolase LgasBSHa (cluster gasseri_1), amplified from genomic DNA; selectivity loop GVG with V211 in its centre; catalytic cysteine at position 2; Crystallised with taurine and with taurine plus CDCA; also called taurine-preferring BSH; bile salt hydrolase; source: E. coli BL21-G, purified (HisTrap HP, Superdex 200)
stoichiometry N [3]: 4
